Laboratory results as given in PMC7022633, “Gene Cloning, Recombinant Expression, Characterization, and Molecular Modeling of the Glycolytic Enzyme Triosephosphate Isomerase from Fusarium oxysporum” (Microorganisms, 2019).

Target: recombinant triosephosphate isomerase from Fusarium oxysporum (FoxTPI) (Fusarium oxysporum)
Test: SEC; gel filtration on Sephacryl 100 (16/60), 50 mM Tris pH 8.0, 0.5 mL/min; calibrated with Bio-Rad gel filtration standard; single peak at 47 mL, relative MW 56 kDa

recombinant triosephosphate isomerase from Fusarium oxysporum (FoxTPI) (enzyme)
stoichiometry N: 2
